Data on 3 substances can be found in paper PMC3985303.

The target of the test is Guinea pig soluble FcRn (guinea pig). The test is described as follows: SPR.
As usually defined, the Kd is the constant that tells how readily two partners part at equilibrium. Read a high Kd as a looser complex. Take “human IgG1 purified from myeloma (from UniProt P01857)”: the Kd turned out to be 5.2 µM.
In turn, “human IgG2 purified from myeloma (from UniProt P01859)” gave a Kd of 4.2 µM. The Kd values of the last two substances are within 1.5-fold of each other.
In the case of “human IgG4 purified from myeloma (from UniProt P01861)” it was 6.8 µM.
